The text below walks through data of PMC4021819, “LIM homeodomain transcription factor Isl1 directs normal pyloric development by targeting Gata3”.

Series [1] deals with T1, Isl1 C-terminal fragment (LIM domains removed) (UniProt P61372 134-349).
T1 sequence: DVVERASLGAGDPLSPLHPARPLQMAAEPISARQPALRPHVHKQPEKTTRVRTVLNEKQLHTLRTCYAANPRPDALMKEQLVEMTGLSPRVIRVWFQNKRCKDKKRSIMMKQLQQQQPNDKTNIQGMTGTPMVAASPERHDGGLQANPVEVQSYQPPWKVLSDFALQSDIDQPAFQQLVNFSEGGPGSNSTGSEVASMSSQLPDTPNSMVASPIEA
The series can be described thus: competition; 100x unlabeled mutant vs site 1 probe; 40 mM KCl, 15 mM HEPES pH 7.9, 1 mM EDTA, 0.5 mM DTT, 5% glycerol, 50 ng/ul poly(dI-dC), 2 nM probe, 20 ul, room temperature 20 min; 6% native PAGE in 0.5x TBE. The following applies: protein: ivt; blunt.

The target in series [2] is T1, Isl1 C-terminal fragment (LIM domains …). The series can be described thus: EMSA; self-competed by 100x unlabeled; blocked by Isl1 antibody 40.2D6; 40 mM KCl, 15 mM HEPES pH 7.9, 1 mM EDTA, 0.5 mM DTT, 5% glycerol, 50 ng/ul poly(dI-dC), 2 nM probe, 20 ul, room temperature 20 min; 6% native PAGE in 0.5x TBE. The following applies: protein: ivt; label: 5'-biotin (probe); blunt.

For series [3] the target is unchanged. Description: competition; 100x unlabeled mutant vs site 3 probe; 40 mM KCl, 15 mM HEPES pH 7.9, 1 mM EDTA, 0.5 mM DTT, 5% glycerol, 50 ng/ul poly(dI-dC), 2 nM probe, 20 ul, room temperature 20 min; 6% native PAGE in 0.5x TBE. The settings on record: protein: ivt; blunt.

B1: Gata3-P1 number 1 mutant (dsDNA)
DNA 1: GTCCTCTTTCCCACGGCCCCACTGTCAGTC
DNA 2: GACTGACAGTGGGGCCGTGGGAAAGAGGAC
B1: the binding result in series [1] was “no binding”.

B2: Gata3-P1 number 1 wild type (dsDNA)
DNA 1: GTCCTCTTTCCCAATTACCCACTGTCAGTC
DNA 2: GACTGACAGTGGGTAATTGGGAAAGAGGAC
For B2, the binding result in series [2] is “binds”.

B3: Gata3-P1 number 3 mutant (dsDNA)
DNA 1: CCTGGAGGGGCCTCGGCGATATTTTGTTTT
DNA 2: AAAACAAAATATCGCCGAGGCCCCTCCAGG
B3: in series [3], the binding result was “no binding”.

B4: Gata3-P1 number 3 wild type (dsDNA)
DNA 1: CCTGGAGGGGCCTATTAGATATTTTGTTTT
DNA 2: AAAACAAAATATCTAATAGGCCCCTCCAGG
With B4, the binding result in series [2] is given as “binds”.
